This test deals with Karyopherin beta2 (Kapβ2), full length, wild type (human) (UniProt Q92973). Nature of the test: ITC; MBP-M9NLS(257-305) mutant titrated into full length Kapβ2. A general note: In ITC the heat of successive injections is recorded.
Karyopherin beta2 (Kapβ2), full length, wild type (human), sequence (Q92973 9-898 limits assumed): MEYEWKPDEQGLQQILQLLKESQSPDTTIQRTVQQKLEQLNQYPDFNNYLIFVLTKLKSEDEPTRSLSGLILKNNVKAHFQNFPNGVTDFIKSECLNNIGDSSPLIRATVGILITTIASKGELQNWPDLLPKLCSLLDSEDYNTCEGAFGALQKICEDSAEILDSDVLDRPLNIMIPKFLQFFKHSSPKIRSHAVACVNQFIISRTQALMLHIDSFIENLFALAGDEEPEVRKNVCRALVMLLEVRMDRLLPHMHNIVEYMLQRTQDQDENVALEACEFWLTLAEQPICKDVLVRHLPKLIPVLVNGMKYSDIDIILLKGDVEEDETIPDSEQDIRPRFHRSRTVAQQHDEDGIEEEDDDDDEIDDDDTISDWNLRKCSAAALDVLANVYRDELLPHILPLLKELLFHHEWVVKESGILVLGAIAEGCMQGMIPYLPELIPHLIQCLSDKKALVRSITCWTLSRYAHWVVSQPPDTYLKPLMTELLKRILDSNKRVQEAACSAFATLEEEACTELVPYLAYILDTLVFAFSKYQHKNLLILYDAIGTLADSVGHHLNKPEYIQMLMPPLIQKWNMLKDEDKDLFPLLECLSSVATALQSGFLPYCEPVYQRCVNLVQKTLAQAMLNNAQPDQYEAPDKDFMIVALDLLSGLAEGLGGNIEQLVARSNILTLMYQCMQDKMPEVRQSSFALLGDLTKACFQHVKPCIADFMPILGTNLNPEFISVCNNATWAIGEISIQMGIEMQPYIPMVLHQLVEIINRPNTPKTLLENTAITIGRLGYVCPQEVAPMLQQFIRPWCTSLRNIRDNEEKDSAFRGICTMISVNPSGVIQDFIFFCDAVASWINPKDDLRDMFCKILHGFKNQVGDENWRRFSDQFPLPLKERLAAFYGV
As a reminder, the Kd is the free concentration of one partner at which half of the binding sites on the other are occupied at equilibrium, for simple one-to-one binding. Low readings indicate a tighter complex, high ones a looser complex. Turning to “MBP-M9NLS(257-305) F273A (from UniProt P09651 257-305)”, the Kd is 61 nM.
Regarding “MBP-M9NLS(257-305) G274A/P288A/Y289A (from UniProt P09651 257-305)”, the Kd stood at 5900 nM.
“MBP-M9NLS(257-305) P275A (from UniProt P09651 257-305)” showed a Kd of 74 nM.
“MBP-M9NLS(257-305) R284A/P288A/Y289A (from UniProt P09651 257-305)” displayed a Kd of 461 nM.
The substance “MBP-M9NLS(257-305) F281A (from UniProt P09651 257-305)” registered a Kd of 56 nM.
The same measure for “MBP-M9NLS(257-305) G274A (from UniProt P09651 257-305)”: 746 nM; for “MBP-M9NLS(257-305) R284A (from UniProt P09651 257-305)”: 92 nM; for “MBP-M9NLS(257-305) M276A (from UniProt P09651 257-305)”: 83 nM.
“MBP-M9NLS(257-305) P288A (from UniProt P09651 257-305)”: the Kd is 158 nM.
Substance “MBP-M9NLS(257-305) P288A/Y289A (from UniProt P09651 257-305)” gave an equilibrium dissociation constant (Kd) of 136 nM.
“MBP-M9NLS(257-305) Y289A (from UniProt P09651 257-305)”: the Kd is 133 nM.
